Values quoted from earlier work in patent US11040110B2, “Polypeptide complex comprising non-peptidyl polymer having three functional ends” (HANMI SCIENCE CO., LTD., priority 2008, dated 2021).

Conditions: Osborn et al. 2002

interferon alpha
serum half-life: 5 h
